# Measured values taken from patent US5886163, “HIV-1 antigens, antibody compositions related thereto, and therapeutic and prophylactic uses thereof” (Progenics Pharmaceuticals, Inc., dated 1999).
# Molecular target: human CD4 on the membrane surface of DG44 #3 cells (human, UniProt P01730)
# Assay: FACS on DG44 #3 cells (CHO cells transfected with human CD4 cDNA)
binder,measurement,value
HIV-1 gp120LAI (ligand) not shown,binding result,binds
